Data reported in article doi:10.1101/2021.05.19.444834v1 (bioRxiv, 2021).

Columns and labels:
ThfB and ThfM = assay: In vitro reconstitution with ThfB and ThfM together; format: biochemical, Thermobifida fusca; conditions: 10 μM ThfA, 1 μM ThfB, 1 μM ThfM, 0.4 mM SAM, ATP, no KCl, 37 °C; 5 h; LC-MS
O-methyltransferase ThfM = assay: In vitro aspartimide formation by ThfM alone; format: biochemical, Thermobifida fusca; conditions: 10 μM substrate, 1 μM ThfM, 0.4 mM SAM, 100 mM sodium phosphate, 37 °C; LC-MS

Q: Which “conversion to triply dehydrated product” value (ThfB and ThfM) does the source give for ThfA here?
A: ~ 75%

Q: What about the “modification by ThfM alone” value (O-methyltransferase ThfM) of the same substance?
A: no reaction
